# Assay results taken from patent publication US20250043302A1, “MUTATED HYDROXYPHENYLPYRUVATE DIOXYGENASE POLYPEPTIDE, AND CODING GENE AND USE THEREOF” (BEIJING DABEINONG BIOTECHNOLOGY CO., LTD., priority 2021, published 2025).
# How the values were obtained:
# Format in all cases: in vivo
# [1] = system: Arabidopsis thaliana T1 plants; experiment: Topramezone tolerance of transgenic Arabidopsis thaliana T1 plants (spray, bleached leaf area grade, damage score); conditions: for Classification and statistics of the grade of pesticide damage Grade 0: number of plants at grade 0; for Classification and statistics of the grade of pesticide damage Grade 1: number of plants at grade 1; for Classification and statistics of the grade of pesticide damage Grade 2: number of plants at grade 2; for Classification and statistics of the grade of pesticide damage Grade 3: number of plants at grade 3; for Classification and statistics of the grade of pesticide damage: Grade 0 / Classification and statistics of the grade of pesticide damage: Grade 1 / Classification and statistics of the grade of pesticide damage: Grade 2 / Classification and statistics of the grade of pesticide damage: Grade 3: number of plants
# Method in brief: (§1)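 Damage was assessed by bleaching grade (0 none; 1 <50%; 2 >50%; 3 100% of leaf area) one week after spraying. Sprays on 18-day-old T1 and wild-type plants used field-rate multiples: topramezone 25–200, isoxaflutole 35–280, mesotrione 52.5–420 g ai/ha.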
# [2] = system: Arabidopsis thaliana T1 plants; experiment: Isoxaflutole tolerance of transgenic Arabidopsis thaliana T1 plants (spray, bleached leaf area grade, damage score); parameters: Scores (pesticide damage): scale not given here; conditions: for Classification and statistics of the grade of pesticide damage: Grade 0 (number of plants) / Classification and statistics of the grade of pesticide damage: Grade 1 (number of plants) / Classification and statistics of the grade of pesticide damage: Grade 2 (number of plants) / Classification and statistics of the grade of pesticide damage: Grade 3 (number of plants): 16 plants; for Classification and statistics of the grade of pesticide damage Grade 0 / Classification and statistics of the grade of pesticide damage Grade 1 / Classification and statistics of the grade of pesticide damage Grade 2 / Classification and statistics of the grade of pesticide damage Grade 3: number of plants in grade
# Method in brief: as §1
# [3] = system: Arabidopsis thaliana T1 plants; experiment: Mesotrione tolerance of transgenic Arabidopsis thaliana T1 plants (spray, bleached leaf area grade, damage score); parameters: Scores: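 damage score 0-100 computed as Σ(N×S)/(T×M)×100 over grades 0-3 with higher meaning more damage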; conditions: for Grade 0 (classification and statistics of the grade of pesticide damage; number of plants) / Grade 1 (classification and statistics of the grade of pesticide damage; number of plants) / Grade 2 (classification and statistics of the grade of pesticide damage; number of plants) / Grade 3 (classification and statistics of the grade of pesticide damage; number of plants): 16 plants; for Classification and statistics of the grade of pesticide damage Grade 0 / Classification and statistics of the grade of pesticide damage Grade 1 / Classification and statistics of the grade of pesticide damage Grade 2 / Classification and statistics of the grade of pesticide damage Grade 3: number of plants in grade
# Method in brief: as §1
# [4] = Table 13, topramezone 25 g ai/ha (1×)
# [5] = Table 13, topramezone 100 g ai/ha (4×)
# [6] = topramezone 25 g ai/ha (1×), 7 DAT, Table 4
# [7] = topramezone 100 g ai/ha (4×), 7 DAT, Table 4
# [8] = isoxaflutole 35 g ai/ha (0.5x field concentration), spray, Arabidopsis thaliana T1 plants
# [9] = isoxaflutole 70 g ai/ha (1x field concentration), spray, Arabidopsis thaliana T1 plants
# [10] = mesotrione 52.5 g ai/ha, Arabidopsis thaliana T1 plants
# [11] = mesotrione 105 g ai/ha, Arabidopsis thaliana T1 plants
molecule,measurement,setting,value
"AtHPPDm-F372A-02: nucleotide sequence encoding Arabidopsis thaliana HPPD with F372A; vector DBN11731 (nucleic acid, AtHPPDm-F372A-02 Nucleotide Sequence, vector DBN11731) DNA: ATGGGACATCAGAATGCTGCTGTATCAGAAAATCAAAATCATGATGATGGAGCCGCCTCCTCACCAGGGTTTAAGTTGGTTGGGTTCTCCAAGTTTGTACGGAAGAACCCAAAATCCGACAAGTTCAAGGTTAAACGCTTCCACCACATTGAATTCTGGTGCGGCGACGCCACCAATGTTGCTCGGCGTTTTTCATGGGGTTTAGGCATGAGATTCTCAGCAAAGAGTGACCTGAGCACCGGCAACATGGTTCATGCTAGCTATCTCTTAACATCTGGAGATTTGAGGTTTCTTTTCACGGCGCCGTACTCACCATCACTCTCCGCCGGCGAGATCAAACCCACCACGACTGCAAGCATACCTTCATTTGATCATGGTAGTTGCAGATCCTTCTTCTCGTCGCACGGCCTAGGGGTGCGCGCGGTCGCCATCGAAGTTGAAGATGCAGAATCAGCGTTTAGTATCAGCGTGGCAAATGGAGCTATTCCTTCCTCCCCTCCAATTGTCCTCAATGAGGCTGTAACTATTGCCGAGGTGAAGTTGTATGGAGATGTTGTGCTGAGATATGTTTCTTACAAGGCAGAGGACACTGAGAAATCTGAATTTTTGCCTGGTTTTGAAAGGGTCGAGGATGCTTCAAGTTTTCCTCTTGATTACGGCATACGACGGTTGGATCACGCGGTTGGAAATGTACCAGAACTTGGGCCGGCGCTCACTTATGTGGCTGGTTTCACTGGATTCCATCAATTTGCTGAGTTCACAGCTGATGATGTTGGGACTGCTGAAAGTGGGTTGAACTCTGCAGTCCTCGCCTCTAATGATGAAATGGTGCTCCTCCCGATCAACGAGCCTGTGCATGGCACCAAAAGGAAATCACAAATACAGACATATCTTGAGCACAATGAAGGTGCAGGGCTTCAACATCTTGCACTGATGTCTGAAGACATTTTCCGTACGCTGAGAGAGATGAGGAAGAGAAGTAGTATTGGTGGATTTGACTTCATGCCTTCTCCCCCACCAACTTACTACCAGAACTTGAAGAAGAGGGTTGGTGATGTGCTATCTGATGACCAGATCAAGGAGTGTGAAGAATTGGGCATTCTTGTTGATCGGGACGACCAAGGAACATTACTGCAGATAGCCACAAAACCACTTGGTGACCGCCCCACTATTTTTATTGAGATCATACAAAGAGTCGGCTGCATGATGAAGGATGAGGAAGGAAAAGCATATCAATCTGGTGGTTGTGGCGGCTTTGGGAAAGGAAACTTCTCTGAGCTGTTCAAATCCATCGAGGAGTATGAGAAGACCTTGGAGGCCAAGCAGCTCGTGGGTTGA",Resistance evaluation,[1]; [4],Poorly
same,Classification and statistics of the grade of pesticide damage Grade 0,[1]; [4],4
same,Classification and statistics of the grade of pesticide damage Grade 1,[1]; [4],4
same,Classification and statistics of the grade of pesticide damage Grade 2,[1]; [4],8
same,Classification and statistics of the grade of pesticide damage Grade 3,[1]; [4],0
same,Scores,"[1]; Table 13, topramezone 25 g ai/ha (1×), pesticide damage score",42
same,Resistance evaluation,[1]; [5],Non-resistant
same,Classification and statistics of the grade of pesticide damage Grade 0,[1]; [5],0
same,Classification and statistics of the grade of pesticide damage Grade 1,[1]; [5],0
same,Classification and statistics of the grade of pesticide damage Grade 2,[1]; [5],4
same,Classification and statistics of the grade of pesticide damage Grade 3,[1]; [5],12
same,Scores,"[1]; Table 13, topramezone 100 g ai/ha (4×), pesticide damage score",92
same,Classification and statistics of the grade of pesticide damage: Grade 0,[1]; [6],4
same,Classification and statistics of the grade of pesticide damage: Grade 1,[1]; [6],4
same,Classification and statistics of the grade of pesticide damage: Grade 2,[1]; [6],8
same,Classification and statistics of the grade of pesticide damage: Grade 3,[1]; [6],0
same,Classification and statistics of the grade of pesticide damage: Grade 0,[1]; [7],0
same,Classification and statistics of the grade of pesticide damage: Grade 1,[1]; [7],0
same,Classification and statistics of the grade of pesticide damage: Grade 2,[1]; [7],4
same,Classification and statistics of the grade of pesticide damage: Grade 3,[1]; [7],12
same,Scores,"[1]; pesticide damage score 0-100, topramezone 25 g ai/ha (1×), 7 DAT, Table 4",42
same,Scores,"[1]; pesticide damage score 0-100, topramezone 100 g ai/ha (4×), 7 DAT, Table 4",92
same,Resistance evaluation,[1]; [6],poorly
same,Resistance evaluation,[1]; [7],non-resistant (non-resistant plants (scores 68-100))
same,Resistance evaluation,[2]; isoxaflutole 35 g ai/ha,Poorly
same,Scores,[2]; isoxaflutole 35 g ai/ha,52
same,Resistance evaluation,[2]; [8],Poorly
same,Scores (pesticide damage),[2]; [8],52
same,Classification and statistics of the grade of pesticide damage: Grade 0 (number of plants),[2]; [8],0
same,Classification and statistics of the grade of pesticide damage: Grade 1 (number of plants),[2]; [8],9
same,Classification and statistics of the grade of pesticide damage: Grade 2 (number of plants),[2]; [8],5
same,Classification and statistics of the grade of pesticide damage: Grade 3 (number of plants),[2]; [8],2
same,Classification and statistics of the grade of pesticide damage Grade 0,[2]; isoxaflutole 35 g ai/ha,0
same,Classification and statistics of the grade of pesticide damage Grade 1,[2]; isoxaflutole 35 g ai/ha,9
same,Classification and statistics of the grade of pesticide damage Grade 2,[2]; isoxaflutole 35 g ai/ha,5
same,Classification and statistics of the grade of pesticide damage Grade 3,[2]; isoxaflutole 35 g ai/ha,2
same,Resistance evaluation,[2]; isoxaflutole 70 g ai/ha,Non-resistant
same,Scores,[2]; isoxaflutole 70 g ai/ha,96
same,Resistance evaluation,[2]; [9],Non-resistant
same,Scores (pesticide damage),[2]; [9],96
same,Classification and statistics of the grade of pesticide damage: Grade 0 (number of plants),[2]; [9],0
same,Classification and statistics of the grade of pesticide damage: Grade 1 (number of plants),[2]; [9],0
same,Classification and statistics of the grade of pesticide damage: Grade 2 (number of plants),[2]; [9],2
same,Classification and statistics of the grade of pesticide damage: Grade 3 (number of plants),[2]; [9],14
same,Classification and statistics of the grade of pesticide damage Grade 0,[2]; isoxaflutole 70 g ai/ha,0
same,Classification and statistics of the grade of pesticide damage Grade 1,[2]; isoxaflutole 70 g ai/ha,0
same,Classification and statistics of the grade of pesticide damage Grade 2,[2]; isoxaflutole 70 g ai/ha,2
same,Classification and statistics of the grade of pesticide damage Grade 3,[2]; isoxaflutole 70 g ai/ha,14
same,Resistance evaluation,[3]; mesotrione 52.5 g ai/ha,Poorly resistant
same,Scores,[3]; mesotrione 52.5 g ai/ha,63
same,Resistance evaluation,[3]; [10],Poorly resistant
same,Scores,[3]; [10],63
same,Grade 0 (classification and statistics of the grade of pesticide damage; number of plants),[3]; [10],0
same,Grade 1 (classification and statistics of the grade of pesticide damage; number of plants),[3]; [10],5
same,Grade 2 (classification and statistics of the grade of pesticide damage; number of plants),[3]; [10],8
same,Grade 3 (classification and statistics of the grade of pesticide damage; number of plants),[3]; [10],3
same,Classification and statistics of the grade of pesticide damage Grade 0,[3]; mesotrione 52.5 g ai/ha,0
same,Classification and statistics of the grade of pesticide damage Grade 1,[3]; mesotrione 52.5 g ai/ha,5
same,Classification and statistics of the grade of pesticide damage Grade 2,[3]; mesotrione 52.5 g ai/ha,8
same,Classification and statistics of the grade of pesticide damage Grade 3,[3]; mesotrione 52.5 g ai/ha,3
same,Resistance evaluation,[3]; mesotrione 105 g ai/ha,Non-resistant
same,Scores,[3]; mesotrione 105 g ai/ha,100
same,Resistance evaluation,[3]; [11],Non-resistant
same,Scores,[3]; [11],100
same,Grade 0 (classification and statistics of the grade of pesticide damage; number of plants),[3]; [11],0
same,Grade 1 (classification and statistics of the grade of pesticide damage; number of plants),[3]; [11],0
same,Grade 2 (classification and statistics of the grade of pesticide damage; number of plants),[3]; [11],0
same,Grade 3 (classification and statistics of the grade of pesticide damage; number of plants),[3]; [11],16
same,Classification and statistics of the grade of pesticide damage Grade 0,[3]; mesotrione 105 g ai/ha,0
same,Classification and statistics of the grade of pesticide damage Grade 1,[3]; mesotrione 105 g ai/ha,0
same,Classification and statistics of the grade of pesticide damage Grade 2,[3]; mesotrione 105 g ai/ha,0
same,Classification and statistics of the grade of pesticide damage Grade 3,[3]; mesotrione 105 g ai/ha,16
